Data reported in the nanobody polyreactivity screen of Harvey et al. (2022).

Assay: yeast display, Sf9 membrane polyspecificity reagent, FACS + sequencing; frameworks hold sequencing errors
How it was run: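 Galactose-induced (36–48 hours) yeast carrying a synthetic nanobody display library were exposed to 10% biotinylated, detergent-solubilized Sf9 membrane reagent at 4 °C for 1 hour. FACS followed streptavidin microbead enrichment, using low and high (top ~1%) gates for expression (anti-HA) and reagent binding (streptavidin). Colony PCR, MiSeq 2 × 250 sequencing and CDR-length filtering followed. Labels for polyreactivity reflect the gate of origin.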

Row | Sequence | polyreactivity (PSR sort gate)
1 | QVQLVESGGGLVQAGGSLRLSCAASGITFSYNAMGWYRQAAGKERELVAAITWSGDSTYYADSVKGRFTISRDNAKNTVYLQMNSLKPEDTAVYYCNAVPSQHDEFDYWGQGTQVTVSS | low polyreactivity
2 | QVQLVESGGGLVQAGGSLRLSCAASGSTFFNYAMGWYRQAPGKEREFVARIRWRGGSTYYADSVKGRFTISRDNAKNTVYLQMNSLKPEDTAVYYCNADYWGHGGLYDYWGQGTQVTVSS | high polyreactivity
3 | QVQLVESGGGLVQAGGSLRLSCAASGRIFYVYAMGWYRQAPRKERELVAAITSGGSTYYADSVKGRFTISRDNAKNTVYLQMNSLKPEDTAVYYCAAYNRGRFRPYRFEYWGQGTQVTVSS | high polyreactivity
4 | QVQLVESGGGIVQAGGSLRLSRAASGFTFPFYAMRWYRQAHGKERELVAAISQSGVRTYYADSVKGRFTISRDNAKNSVYLLMNSLKPEDTAVYYCAATSLNTRTGYWGQGTQVTVSS | high polyreactivity
5 | QVQLVESGGGLVQAGGSLRLSCAASGLTIGYYAMGWYRQAPGKERELVATITWRGVRTYYADSVKGRFTISRDNAKNTVYLQMNSLKPEDTAVYYCDKGYWSKGERWFGGFGYWGQGTQVTVSS | low polyreactivity
6 | QVQLVESGGGLVQAGCSLRLSCAASGRTFSTYAMGWYRQAPGKERELVAAITRRGGSTYYADSVKRRFTISRDNAKNTVYLQINSLKPEDTAVYYCETYADRPPRTPDISYVSNFDYWGQGTQVTVSS | low polyreactivity
7 | QVQLVETGGGLVQAGGSLRLSCAASGNTFGDYAMGWYRQAPGKERELVAAISRSGGSTSYADSVKGRFTISRDNAKNTVYLQMNSLKPADTAVYYCAAYWQRFGYDYWGQGTQVTGSS | low polyreactivity
8 | QVQLVESGGGLVQAGGSLRLSCAASGSILGINVMGWYRQAPGKERELVAAISWRGGRTYYADSVKGRFTISRDNAKNTVYLQMNSLKPEDTAVYYCAAYFYSTSYGADRGVDYWGQGTQVTVSS | high polyreactivity
9 | QVQLVESGGGLVQAGGSLRLSCAASGSIFWDYAMGWYRQAPGKERELVAAISSNGGNTYYADSVKGRFTISRDNAKNTVYLQMNSLKPEDTAVYYCAARAKRRHGYWGQGTQVTVSS | high polyreactivity
10 | QVHLVESGGGLVQAGGSLRLSCAASGSTFAIYAMVWYRQAPGKERELVAAIRQRAGSTYYADSVKGRFTISRDNAKNTVYLQMNSLKPEDTAVHYCATATRPISRGYWGQGTQVTVSS | low polyreactivity
11 | QVHLVESVGGLDQAGGSLRLSCAASGFIFVRYAMGWYRQAHGKEREFVAVISRRGGSTHYADSVKARFTISRDNAKNTVYLQMNSLKPEDTAVYYCNVRQGGPTVTWEYDYWGQGTQGTVSS | high polyreactivity
12 | QVQLVESGGGLVQAGGSLRLSCAASGSTFYYNSMGWYRQAPGKERELVARISRSGGSTYADSVKGRFTISRDNAKNTVYLQMNSLKPEDTAVYYCAKDYAPSATKLHYWGQGTQVTVSS | low polyreactivity
13 | QFQLVESGGGLVQAGGSLRLSCAASGNIFGYYALGWYRQAPGKEREFVAAISGGDSTNYADSVKGRFTNSRDNAKNTVYLQMNSLQPEDTAVYYCARDYWSGASGGYPYDYWGQGTQVTVSS | low polyreactivity
14 | QLQLVESGGGLVQAGGSLRLSCAASGVIFRAYAMGSSRQAPGQERELVAAISGRGGSTYYADSVKGRFTISRDNAKNTVYLQMNSLKPEDTAVYYCNVPLIHPGAPYEYWGQGTQVTVSS | high polyreactivity
15 | QVQLVESGGGLVQAGGSLRLTCAASGYIFPYNVMGWYRQAPGKERELVAAITWRVVRTYYADSVKGRFTISRDNAKNTVYLQMNSLKPEDTAVYYCAALSRQSGDYWGQGTQVTVSS | high polyreactivity
16 | QVQLVESGGGLVQAGGSLRLTCAASGSTFIFKKYVMGWYRQAPGSERELVAVISRRGDSTYYADSVKRPFTISRDNAKNTVYLQMNSLKPEDTAVYYCGAGYSTAGLARYDYWGQGTQVTVSS | high polyreactivity
17 | QVQLVESGGGLVQAGGSLRLSCAASGSTFFRYAMGWYRQAPGKEREFVAAITWSGTGTYYADSVKGRFTISRDNAENTVYLQMNSLKPEDTAVYYCNAEPFDLWAFYYGYVYGYYHWGQGTQVTVSS | high polyreactivity
18 | QVQLVESGGGLVQAGGSLRLSCAASGSTFGPYTMGWYRQAPGKERELVAAISYSGASTYYADSVKGRFTISRDNAMNTVYLQMNSLKPEDTAVYYCNTVYRYTRARYPYDYWGQGTQVTVSS | high polyreactivity
19 | QVQLVESGGGLVQAGGSLRLSCAASGSIFTGYAMGWYRPAPGKERELVAAITSGGGTYYADSVKGRFTISRDNAKNTVSLQMNSLKPEDTAVYYCATTPGWYKVSRRYGYWGQGTQVTVSS | high polyreactivity
20 | QVQLVESGGGLVQAGGSLRLICAASGIIFAYNAMGWYRQAPGKESELVAAISVIGGTTYYADSVKGRFTMSRDNAKNTVYLRMNSLKPEDSAVYYCAVDSVQYGGGYERLHELYYWGQGTQVTVSS | low polyreactivity
21 | QVQLVESGGGLVQAGGSLRLSCAASGRIFFRYVMGWYRQAPGKERELVAAIDRGGTTNYADSVKGRFTISRDNAKNTVYLQMNSLKPEDTAVYYCAVRYFPYRDYYWGQGTQVTVSS | high polyreactivity
